Measurements taken from patent publication US20240002479A1 (REGENTS OF THE UNIVERSITY OF MICHIGAN, published 2024).

T1: DENV2 NS1 (dengue virus serotype 2 non-structural protein 1), wild type (Dengue virus 2, UniProt P29990 776-1127)
T1 sequence: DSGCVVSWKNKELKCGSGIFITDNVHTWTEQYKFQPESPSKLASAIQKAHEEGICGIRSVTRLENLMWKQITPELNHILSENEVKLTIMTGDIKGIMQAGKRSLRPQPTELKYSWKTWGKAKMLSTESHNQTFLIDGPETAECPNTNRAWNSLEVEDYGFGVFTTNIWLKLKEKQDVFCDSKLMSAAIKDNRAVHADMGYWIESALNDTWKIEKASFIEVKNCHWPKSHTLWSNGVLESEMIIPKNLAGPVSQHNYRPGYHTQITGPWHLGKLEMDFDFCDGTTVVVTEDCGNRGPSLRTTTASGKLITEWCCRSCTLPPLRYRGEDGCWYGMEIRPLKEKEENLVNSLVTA

B1: anti-DENV NS1 IgG2b mouse monoclonal antibody (mAb) 2B7 (antibody, V domains shown)
VH: EVQLQQSGPELVKPGASVKMSCKASGCTLTNCFMHWMKQKPGQDLEWIGYINPYNDMTKYSENFKGKATLTSDKSSSTAFMELSSLTSEDSAVYYCARGYLLRTGCFDYWGQGTTLTVSS
VL: NIVLTQSPASLAVSLGQRATISCRASESVDSYGYSFMHWYQQKPGQPPKVLIYLASNLESGVPARFSGSGSRTDFTLTIDPVEADDAATYYCQQNNENPLTFGAGTKLELKR
B2: 2B7 Fab (Fab, V domains shown)
VH: B1 VH
VL: NIVLTQSPASLAVSLGQRATISCRASESVDSYGYSFMHWYQQKPGQPPKVLIYLASNLESGVPARFSGSGSRTDFTLTIDPVEADDAATYYCQQNNENPLTFGAGTKLELK

How the values were obtained:
[1] = target: T1, DENV2 NS1 (dengue virus serotype 2 …); assay: direct ELISA, 2B7 titrated on purified DENV2 NS1, OD450
[2] = target: T1, DENV2 NS1 (dengue virus serotype 2 …); assay: BLI, NS1 on anti-His tips; full-length 2B7, not Fab
[3] = target: T1, DENV2 NS1 (dengue virus serotype 2 …); assay: BLI, NS1 on anti-His tips; Fab, not full-length IgG
[4] = target: T1, DENV2 NS1 (dengue virus serotype 2 …); assay: BLI, NS1 on anti-His tips, n=2 preparations

Binder | EC50 (read off the curve) [1] [ng/mL] | Kd [2] [nM] | Kd [3] [nM] | Kd [4] [nM]
B1 | ~5 | 4.8 | – | –
B2 | – | – | 8.3 | 5 to 8
